Patent WO2016171242A1 (dated 2016)

Legend:
Assay in all cases: flow cytometry on transfected 293F cells
[1] = target: T1, human EPHA5 without signal sequence, FLAG-tagged, expressed from pFLAG-EPHA5 (human, UniProt P54756 56-1037)
T1 construct: not shown: FLAG tag supplied by the vector pFLAG-GW

[2] = target: T2, human PTPRS isoform 4 without signal sequence, FLAG-tagged, expressed from pFLAG-PTPRS-4 (human, UniProt Q13332 30-1948)
T2 construct: not shown: FLAG tag supplied by the vector pFLAG-GW
T2 sequence: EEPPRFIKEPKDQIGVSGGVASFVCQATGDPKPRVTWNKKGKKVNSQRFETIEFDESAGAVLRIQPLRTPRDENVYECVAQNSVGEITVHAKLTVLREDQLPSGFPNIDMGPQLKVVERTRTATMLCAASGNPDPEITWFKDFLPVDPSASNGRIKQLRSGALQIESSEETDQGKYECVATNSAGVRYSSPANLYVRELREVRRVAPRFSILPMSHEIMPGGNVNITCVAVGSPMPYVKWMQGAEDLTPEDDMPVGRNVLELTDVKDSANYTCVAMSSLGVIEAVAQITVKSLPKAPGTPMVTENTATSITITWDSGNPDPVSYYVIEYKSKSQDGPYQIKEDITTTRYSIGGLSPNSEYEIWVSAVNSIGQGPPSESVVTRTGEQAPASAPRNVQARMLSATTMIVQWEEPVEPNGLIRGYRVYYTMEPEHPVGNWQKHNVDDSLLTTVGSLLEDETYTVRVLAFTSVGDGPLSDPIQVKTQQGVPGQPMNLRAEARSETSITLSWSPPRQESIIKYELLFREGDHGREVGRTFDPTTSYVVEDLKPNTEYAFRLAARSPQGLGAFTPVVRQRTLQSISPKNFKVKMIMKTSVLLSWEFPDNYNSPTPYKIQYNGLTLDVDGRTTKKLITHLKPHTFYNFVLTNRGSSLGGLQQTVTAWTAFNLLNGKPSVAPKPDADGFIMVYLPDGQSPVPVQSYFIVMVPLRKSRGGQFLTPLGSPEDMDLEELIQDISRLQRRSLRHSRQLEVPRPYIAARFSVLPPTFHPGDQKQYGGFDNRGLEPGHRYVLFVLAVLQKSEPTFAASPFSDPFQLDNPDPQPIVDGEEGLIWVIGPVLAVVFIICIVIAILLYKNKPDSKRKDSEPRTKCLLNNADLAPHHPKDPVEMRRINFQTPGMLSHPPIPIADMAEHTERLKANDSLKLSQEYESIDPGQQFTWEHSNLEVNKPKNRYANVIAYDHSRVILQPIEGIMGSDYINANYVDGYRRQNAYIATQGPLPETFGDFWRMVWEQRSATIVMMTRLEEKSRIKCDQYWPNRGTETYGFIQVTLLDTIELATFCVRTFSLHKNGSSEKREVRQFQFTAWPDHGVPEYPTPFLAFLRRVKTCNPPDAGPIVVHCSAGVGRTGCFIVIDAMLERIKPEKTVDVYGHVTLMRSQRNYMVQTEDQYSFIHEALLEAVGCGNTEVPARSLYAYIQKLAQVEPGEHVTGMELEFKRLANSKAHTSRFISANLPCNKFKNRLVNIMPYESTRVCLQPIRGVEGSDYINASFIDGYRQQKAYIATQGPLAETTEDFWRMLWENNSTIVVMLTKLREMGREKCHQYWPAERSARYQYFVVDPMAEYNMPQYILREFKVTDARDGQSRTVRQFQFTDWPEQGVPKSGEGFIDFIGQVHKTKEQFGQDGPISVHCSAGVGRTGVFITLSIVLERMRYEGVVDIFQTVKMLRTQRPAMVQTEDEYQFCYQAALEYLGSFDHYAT

[3] = target: T3, human EPHB3 without signal sequence, FLAG-tagged, expressed from pFLAG-EPHB3 (human, UniProt P54753 38-998)
T3 construct: not shown: FLAG tag supplied by the vector pFLAG-GW
T3 sequence: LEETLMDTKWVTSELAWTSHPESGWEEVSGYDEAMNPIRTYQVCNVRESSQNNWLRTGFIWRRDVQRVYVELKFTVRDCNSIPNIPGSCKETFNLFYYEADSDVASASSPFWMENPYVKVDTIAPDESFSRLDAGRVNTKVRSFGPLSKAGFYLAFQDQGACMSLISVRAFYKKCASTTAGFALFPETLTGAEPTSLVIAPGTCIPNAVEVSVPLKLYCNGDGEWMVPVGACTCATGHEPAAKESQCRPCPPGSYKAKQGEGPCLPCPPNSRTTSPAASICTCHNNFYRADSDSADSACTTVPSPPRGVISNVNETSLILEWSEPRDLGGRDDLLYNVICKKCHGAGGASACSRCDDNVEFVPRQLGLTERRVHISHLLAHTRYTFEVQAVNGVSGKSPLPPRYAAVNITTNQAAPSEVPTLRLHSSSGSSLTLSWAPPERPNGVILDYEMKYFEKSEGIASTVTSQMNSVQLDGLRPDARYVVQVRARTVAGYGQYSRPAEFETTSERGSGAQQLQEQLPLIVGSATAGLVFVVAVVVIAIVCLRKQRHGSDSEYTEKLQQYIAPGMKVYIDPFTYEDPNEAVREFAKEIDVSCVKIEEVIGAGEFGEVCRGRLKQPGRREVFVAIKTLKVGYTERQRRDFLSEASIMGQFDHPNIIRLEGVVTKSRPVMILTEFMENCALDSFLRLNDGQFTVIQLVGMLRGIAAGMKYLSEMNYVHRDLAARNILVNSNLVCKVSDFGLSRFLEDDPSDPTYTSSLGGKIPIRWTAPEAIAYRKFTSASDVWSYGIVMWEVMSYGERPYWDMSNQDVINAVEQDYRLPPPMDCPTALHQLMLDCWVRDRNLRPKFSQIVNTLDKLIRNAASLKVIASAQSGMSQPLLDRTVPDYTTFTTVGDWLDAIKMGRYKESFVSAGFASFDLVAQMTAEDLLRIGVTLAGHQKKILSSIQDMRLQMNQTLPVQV

[4] = target: T4, human PTPRS isoform 2 without signal sequence, FLAG-tagged, expressed from pFLAG-PTPRS-2 (human, UniProt Q13332 30-1948)
T4 construct: not shown: FLAG tag supplied by the vector pFLAG-GW

Measured: binding result

T1 sequence (P54756 56-1037): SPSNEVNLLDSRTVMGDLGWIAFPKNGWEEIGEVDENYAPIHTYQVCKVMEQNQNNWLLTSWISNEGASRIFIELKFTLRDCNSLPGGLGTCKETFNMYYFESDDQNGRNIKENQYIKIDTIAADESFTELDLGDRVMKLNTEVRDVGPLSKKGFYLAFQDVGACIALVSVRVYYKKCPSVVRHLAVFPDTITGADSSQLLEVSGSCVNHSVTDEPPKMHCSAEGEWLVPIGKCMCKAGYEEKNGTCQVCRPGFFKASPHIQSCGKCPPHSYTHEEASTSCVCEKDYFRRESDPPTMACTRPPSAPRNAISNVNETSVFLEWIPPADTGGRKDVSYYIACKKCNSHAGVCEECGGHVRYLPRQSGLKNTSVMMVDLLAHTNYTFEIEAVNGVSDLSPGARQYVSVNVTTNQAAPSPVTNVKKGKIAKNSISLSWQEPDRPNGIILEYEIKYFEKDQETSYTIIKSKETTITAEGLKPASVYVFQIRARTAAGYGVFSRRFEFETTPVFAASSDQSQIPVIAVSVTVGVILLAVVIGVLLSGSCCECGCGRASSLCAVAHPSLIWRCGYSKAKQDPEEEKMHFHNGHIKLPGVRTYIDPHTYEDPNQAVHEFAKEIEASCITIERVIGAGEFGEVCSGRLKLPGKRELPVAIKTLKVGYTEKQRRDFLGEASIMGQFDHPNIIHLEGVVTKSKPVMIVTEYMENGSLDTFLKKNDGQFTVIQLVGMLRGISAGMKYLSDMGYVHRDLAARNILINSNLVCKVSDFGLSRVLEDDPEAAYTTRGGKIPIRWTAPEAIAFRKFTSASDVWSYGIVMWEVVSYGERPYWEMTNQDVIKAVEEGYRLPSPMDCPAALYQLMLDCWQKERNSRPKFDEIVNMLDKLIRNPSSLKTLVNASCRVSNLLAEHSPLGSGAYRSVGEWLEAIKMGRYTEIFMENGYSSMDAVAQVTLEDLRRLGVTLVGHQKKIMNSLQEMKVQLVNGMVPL

B1: mouse anti-human EPHA2 antibody A201 (antibody, V domains shown)
VH: EVQLQQSGAELVKPGASVKLSCTVSGFTFKDTYVHWVKQRPEQGLEWIGRIDPANANTKYDPKFQGKASITADTSSNTAYLQLSSLPSEDTAVYYCAAYGKSAWFAYWGQGTLVTVSA
VL: DIQMTQTTSSLSASLGDRVTISCRASQDIGNYLNWYQQKPDGTVKVLIYYTSRLHSGVPSRFSGSGSGTDYSLTISNLEQEDIATYFCQQGHSLPPTFGGGTKLEIKR
notes: Mouse monoclonal antibody purified from hybridoma supernatant, isotype IgG1; also called A201 antibody
no binding: all assays above

B2: mouse anti-human EPHA2 antibody A205 (antibody, V domains shown)
VH: QIQLVQSGPELKKPGETVKISCKASGYTFTDYSMNWVKQAPGKGLKWMGWINTYTGEPTYADDFKGRFAFSLETSASTAYLQINNLKNEDTATYFCASPISLLRLLDYWGQGTTLTVSS
VL: DVVMTQTPLSLPVSLGDQASIPCRSSQSLVHSNGNTYLHWYLQKPGQSPKLLIYKVSNRFSGVPDRFSGSGSGTDFTLKISRVEAEDLGVYFCSQSTHVPWTFGGGTKLEIKR
notes: Mouse monoclonal antibody purified from hybridoma supernatant, isotype IgG2b; also called A205 antibody
no binding: all assays above
